Reference: patent US20260234206A1

What was measured:
[1] = molecular target: calmodulin (UniProt P0DP23); assay: SPR, CaM immobilised, SXkmer A injected, BiaEvaluate fit
[2] = molecular target: calmodulin (UniProt P0DP23); assay: microscale thermophoresis, labelled SXkmer A with free calmodulin in solution

Work on “Loop calmodulin binder SXkmer A (KMRPGVN) (designed binder)” yielded a koff [1] of 1e-06 s⁻¹ and a Kd [2] of 140 nM.
